Measured values from PMC11059408, “Atypical heat shock transcription factor HSF5 is critical for male meiotic prophase under non-stress conditions” (Nature Communications, 2023).

How the values were obtained:
[1] = target: T1, HSF5 N-terminal protein (HSF5-DBD) (Mus musculus, UniProt Q5ND04 1-209); experiment: EMSA; 0.04 pmol probe, protein/DNA molar ratio 15.6-250; three shifted bands; 20 mM Tris-HCl pH 8.0, 100 mM NaCl, 2 mM MgCl2, 10 ul, 25 C, 10 min; 8% polyacrylamide gel in Tris-borate pH 8.3, 2 mM EDTA; conditions: protein: recombinant; tags: His (pET19b, E. coli; Ni-NTA purified); label: 32P (Klenow, [a-32P]dCTP); 5' overhang 3 nt (AGG) on both strands before Klenow labelling
T1 sequence: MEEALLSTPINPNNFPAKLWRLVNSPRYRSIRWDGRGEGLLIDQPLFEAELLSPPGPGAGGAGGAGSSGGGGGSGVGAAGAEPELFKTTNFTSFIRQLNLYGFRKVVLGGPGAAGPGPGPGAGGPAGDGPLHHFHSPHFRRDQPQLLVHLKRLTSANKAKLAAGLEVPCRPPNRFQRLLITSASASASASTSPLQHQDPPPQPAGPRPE

[2] = target: T1, HSF5 N-terminal protein (HSF5-DBD); experiment: competition; 1 uM protein, 0.04 pmol labeled T probe, 1-125 fold excess competitor; 20 mM Tris-HCl pH 8.0, 100 mM NaCl, 2 mM MgCl2, 10 ul, 25 C, 10 min; 8% polyacrylamide gel in Tris-borate pH 8.3, 2 mM EDTA; conditions: protein: recombinant; tags: His (pET19b, E. coli; Ni-NTA purified); 5' overhang 3 nt (AGG) on both strands
[3] = target: the molecule itself; experiment: SEC-MALS; after heat treatment at 42 °C for 30 min; 100 μL of MBP-full length HSF5 (12.6 μM) or HSF5-DBD (26.6 μM) injected; PROTEIN KW-803 column; 25 mM HEPES/KOH pH 7.2, 150 mM KCl
[4] = target: T1, HSF5 N-terminal protein (HSF5-DBD); experiment: EMSA; 0.04 pmol probe, protein/DNA molar ratio 15.6-250; shifts completely abolished; 20 mM Tris-HCl pH 8.0, 100 mM NaCl, 2 mM MgCl2, 10 ul, 25 C, 10 min; 8% polyacrylamide gel in Tris-borate pH 8.3, 2 mM EDTA; conditions: protein: recombinant; tags: His (pET19b, E. coli; Ni-NTA purified); label: 32P (Klenow, [a-32P]dCTP); 5' overhang 3 nt (AGG) on both strands before Klenow labelling
[5] = target: T1, HSF5 N-terminal protein (HSF5-DBD); experiment: competition; 1 uM protein, 0.04 pmol labeled T probe, 1-125 fold excess competitor; did not compete; 20 mM Tris-HCl pH 8.0, 100 mM NaCl, 2 mM MgCl2, 10 ul, 25 C, 10 min; 8% polyacrylamide gel in Tris-borate pH 8.3, 2 mM EDTA; conditions: protein: recombinant; tags: His (pET19b, E. coli; Ni-NTA purified); 5' overhang 3 nt (AGG) on both strands

B1: HSF5-EMSA target (T) probe (dsDNA)
DNA 1: AGGGCATAGATATGGAACTCTCTTAGAACTCTCTTAGAACTTACTACTG
DNA 2: AGGCAGTAGTAAGTTCTAAGAGAGTTCTAAGAGAGTTCCATATCTATGC
B1: binds [1].

B2: unlabeled target (T) competitor (dsDNA)
DNA 1: AGGGCATAGATATGGAACTCTCTTAGAACTCTCTTAGAACTTACTACTG
DNA 2: AGGCAGTAGTAAGTTCTAAGAGAGTTCTAAGAGAGTTCCATATCTATGC
B2: binds [2].

B3: His-MBP-fused full-length HSF5 protein (natural protein, mouse, UniProt Q5ND04 1-624, looked up)
chain: MEEALLSTPINPNNFPAKLWRLVNSPRYRSIRWDGRGEGLLIDQPLFEAELLSPPGPGAGGAGGAGSSGGGGGSGVGAAGAEPELFKTTNFTSFIRQLNLYGFRKVVLGGPGAAGPGPGPGAGGPAGDGPLHHFHSPHFRRDQPQLLVHLKRLTSANKAKLAAGLEVPCRPPNRFQRLLITSASASASASTSPLQHQDPPPQPAGPRPEQHGPVAVGQFHRSFRRDNLSPYSYVSTSSHNHSAFPLKGLDRTPIPPRTWQNSLGMHPGQVETSPTFSDKGVPFPVLQRFPTEVTYTLQPSATSVHVQQGPQTMVSSSQKYSNYTPSAQYSQAYYPTAVLQCCSPPTHMDALSSCVTPTASSYAHCNYFQNPPMQSSYPVEFLPSNWPCSATDENKKTEVNLEAVFQIVDELHSSPKLEMVKVEPVETQCPSSQANRGQHILPNANSSNPSSTSQASQLEPLTPVGSDITSFVVGTEQAITCSLPQSPEYIYTIHTAQPLENSTMQESATIQQTHVKLKEQLNHNPSPSSVVFVQEGLPFSTPQVDSSIKCQTNPSENILPSEQMGFLISEMGPANKSTKDTGLSTPARYRERRSNSQGKSPDLHLLVDVACKQEHFPKEEELKE
notes: Heat shock transcription factor 5 (HSF5), mouse, full length; A tobacco etch virus protease cleavage site lies between His6-MBP and HSF5; the fusion was not cleaved for SEC-MALS; also called MBP-full length HSF5; His-MBP-full length HSF5; source: pMAL-c6T construct, purified (HisTrap HP, gel filtration on Superdex 200 pg 16/600); not shown: His6, N-terminal, kept; MBP, N-terminal, kept
B3: binds [3].

B4: HSF5-EMSA mutant (M) probe (dsDNA)
DNA 1: AGGGCATAGATAACCTTGAGTCTATCTTGAGTCTATCTTGAAACTACTG
DNA 2: AGGCAGTAGTTTCAAGATAGACTCAAGATAGACTCAAGGTTATCTATGC
B4: no binding [4].

B5: unlabeled mutant (M) competitor (dsDNA)
DNA 1: AGGGCATAGATAACCTTGAGTCTATCTTGAGTCTATCTTGAAACTACTG
DNA 2: AGGCAGTAGTTTCAAGATAGACTCAAGATAGACTCAAGGTTATCTATGC
B5: no binding [5].
